Experimental data from article PMC3538003, “A full-length recombinant Plasmodium falciparum PfRH5 protein induces inhibitory antibodies that are effective across common PfRH5 genetic variants” (Vaccine, 2013).
Like-named read-outs stand apart in the source and are kept apart here.

Columns and labels:
[1] = target: 3D7 PfRH5-Cd4-biotin (P. falciparum Reticulocyte Binding Protein Homologue 5, 3D7 variant) (Plasmodium falciparum (3D7)); experiment: SPR; equilibrium analysis; biotinylated PfRH5-Cd4 captured on a streptavidin chip, biotinylated rat Cd4d3+4 in the reference cell; serial dilutions of basigin-Cd4-6H injected at 20 µl/min; BIAcore T100, 37°C, HBS-EP; regeneration with 2M NaCl
[2] = target: 7G8 PfRH5-Cd4-biotin (P. falciparum Reticulocyte Binding Protein Homologue 5, 7G8 variant) (Plasmodium falciparum (7G8)); experiment: as above
[3] = target: GB4 PfRH5-Cd4-biotin (P. falciparum Reticulocyte Binding Protein Homologue 5, GB4 variant) (Plasmodium falciparum (GB4)); experiment: as above
[4] = target: 7G8 PfRH5-Cd4-biotin (P. falciparum Reticulocyte Binding Protein Homologue 5, 7G8 variant) (Plasmodium falciparum (7G8)); experiment: as above; remark: listed apart in the source
[5] = target: GB4 PfRH5-Cd4-biotin (P. falciparum Reticulocyte Binding Protein Homologue 5, GB4 variant) (Plasmodium falciparum (GB4)); experiment: as above; remark: listed apart in the source
[6] = target: GB4 PfRH5-Cd4-biotin (P. falciparum Reticulocyte Binding Protein Homologue 5, GB4 variant) (Plasmodium falciparum (GB4)); experiment: as above; remark: listed apart in the source
[7] = target: 3D7 PfRH5-Cd4-biotin (P. falciparum Reticulocyte Binding Protein Homologue 5, 3D7 variant) (Plasmodium falciparum (3D7)); experiment: SPR; kinetic analysis, simple 1:1 model fitted globally; biotinylated PfRH5-Cd4 captured on a streptavidin chip, biotinylated rat Cd4d3+4 in the reference cell; serial dilutions of basigin-Cd4-6H injected at 100 µl/min; BIAcore T100, 37°C, HBS-EP; regeneration with 2M NaCl
[8] = target: 3D7 PfRH5-Cd4-biotin (P. falciparum Reticulocyte Binding Protein Homologue 5, 3D7 variant) (Plasmodium falciparum (3D7)); experiment: as above; remark: listed apart in the source
[9] = target: 3D7 PfRH5-Cd4-biotin (P. falciparum Reticulocyte Binding Protein Homologue 5, 3D7 variant) (Plasmodium falciparum (3D7)); experiment: as above; remark: listed apart in the source
[10] = target: 7G8 PfRH5-Cd4-biotin (P. falciparum Reticulocyte Binding Protein Homologue 5, 7G8 variant) (Plasmodium falciparum (7G8)); experiment: as above
[11] = target: GB4 PfRH5-Cd4-biotin (P. falciparum Reticulocyte Binding Protein Homologue 5, GB4 variant) (Plasmodium falciparum (GB4)); experiment: as above
[12] = target: 7G8 PfRH5-Cd4-biotin (P. falciparum Reticulocyte Binding Protein Homologue 5, 7G8 variant) (Plasmodium falciparum (7G8)); experiment: as above; remark: listed apart in the source
[13] = target: 7G8 PfRH5-Cd4-biotin (P. falciparum Reticulocyte Binding Protein Homologue 5, 7G8 variant) (Plasmodium falciparum (7G8)); experiment: as above; remark: listed apart in the source
[14] = target: GB4 PfRH5-Cd4-biotin (P. falciparum Reticulocyte Binding Protein Homologue 5, GB4 variant) (Plasmodium falciparum (GB4)); experiment: as above; remark: listed apart in the source
[15] = target: GB4 PfRH5-Cd4-biotin (P. falciparum Reticulocyte Binding Protein Homologue 5, GB4 variant) (Plasmodium falciparum (GB4)); experiment: as above; remark: listed apart in the source
[16] = target: human basigin extracellular region, soluble Cd4d3+4-6H-tagged (basigin-Cd4-6H) (human, UniProt P35613 138-325); experiment: SPR; BIAcore T100; monomeric biotinylated PfRH5-Cd4 bait captured on a streptavidin-coated chip, Cd4-biotin in the reference flow cell; serial dilutions of purified basigin-Cd4-6H injected at 20 ul/min (equilibrium) or 100 ul/min (kinetics); Langmuir isotherm fit; conditions: both partners purified

basigin-L-Cd4d3+4-6H (extracellular region of human basigin) (from UniProt P35613 138-325) (domain or fragment)
Kd [1]: 1600 nM | Kd [2]: 1000 nM | Kd [3]: 1100 nM | Kd [4]: 800 nM | Kd [5]: 1000 nM | Kd [6]: 800 nM | koff [7]: 0.238 s⁻¹ | kon [7]: 93000 M⁻¹ s⁻¹ | koff [8]: 0.236 s⁻¹ | kon [8]: 95600 M⁻¹ s⁻¹ | koff [9]: 0.24 s⁻¹ | kon [9]: 89600 M⁻¹ s⁻¹ | koff [10]: 0.256 s⁻¹ | kon [10]: 128000 M⁻¹ s⁻¹ | koff [11]: 0.216 s⁻¹ | kon [11]: 118000 M⁻¹ s⁻¹ | koff [12]: 0.251 s⁻¹ | kon [12]: 125000 M⁻¹ s⁻¹ | koff [13]: 0.245 s⁻¹ | kon [13]: 122000 M⁻¹ s⁻¹ | koff [14]: 0.23 s⁻¹ | kon [14]: 110000 M⁻¹ s⁻¹ | koff [15]: 0.244 s⁻¹ | kon [15]: 95900 M⁻¹ s⁻¹

B1: 7G8 PfRH5-Cd4-biotin (P. falciparum Reticulocyte Binding Protein Homologue 5, 7G8 variant) (ligand)
chain: FENAIKKTKNQENNLALLPIKSTEEEKDDIKNGKDIKKEIDNDKENIKTNNAKDHSTYIKSYLNTNVNDGLKYLFIPSHNSFIKKYSVFNQINDGMLLNEKNDVKNNEDYKNVDYKNVNFLQYHFKELSNYNIANSIDILQEKEGHLDFVIIPHYTFLDYYKHLSYNSIYHKSSTYGKYIAVDAFIKKINEAYDKVKSKCNDIKNDLIATIKKLEHPYDINNKNDDSYRYDISEEIDDKSEETDDETEEVEDSIQDTDSNHAPSNKKKNDLMNRAFKKMMDEYNTKKKKLIKCIKNHENDFNKICMDMKNYGTNLFEQLSCYNNNFCNTNGIRYHYDEYIHKLILSVKSKNLNKDLSDMTNILQQSELLLTNLNKKMGSYIYIDTIKFIHKEMKHIFNRIEYHTKIINDKTKIIQDKIKLNIWRTFQKDELLKRILDMSNEYSLFITSDHLRQMLYNTFYSKEKHLNNIFHHLIYVLQMKFNDVPIKMEYFQTYKKNKPLTQ
modifications: monobiotinylated (biotin)
Kd [16]: 900 nM
